Measurements reported in patent US6489125.

Columns and labels:
[1] = tested on: type 2 ryanodine receptor (RyR2), native channel from cardiac sarcoplasmic reticulum
[2] = molecular target: RyR2 channels from failing hearts; assay: cell-based or functional assay
[3] = molecular target: RyR2 channels from failing hearts; assay: co-immunoprecipitation, immunoblot densitometry (FIG. 4B)

Substance | phosphorylation of RyR2 on addition of cAMP without exogenous PKA [1] | open probability (Po) at 50 nM cis (cytosolic) Ca^2+ [2] | decrease in the amount of FKBP12.6 bound (failing against normal hearts) [3]
protein kinase A (PKA) catalytic subunit, endogenous in cardiac SR | Addition of phosphorylation buffer including cAMP without exogenous PKA also resulted in phosphorylation of RyR2 that was inhibited by PKI |  | 
FK-506 binding protein FKBP12.6, native from cardiac SR (from UniProt P68106 1-108) |  | 0.24 | 60%
